Paper PMC3314686 (2012)

B1: GFP-DOR (human DOR/TP53INP2, full length) [modified: [35S]methionine label; [35S]methionine label] [human] / GST-LC3B (full-length proform) [human] (parent complex)
chain 1: MFQRLSSLFFSTPSPPEDPDCPRAFVSEEDEVDGWLIIDLPDSYAAPPSPGAAPAPAGRPPPAPSLMDESWFVTPPACFTAEGPGLGPARLQSSPLEDLLIEHPSMSVYVTGSTIVLEPGSPSPLPDAALPDGDLSEGELTPARREPRAARHAAPLPARAALLEKAGQVRRLQRARQRAERHALSAKAVQRQNRARESRPRRSKNQSSFIYQPCQRQFNY
chain 2: not shown

Variants of: B1
Assay: GST pull-down; in vitro translated [35S]methionine-labelled GFP fusion; three independent experiments; parent: 21; read off a plot
In the case of chain 1 W35A, chain 1 I38A, the response is reported as roughly 3.4 % Binding.
